Laboratory results: patent US20210355220A1

Tests used:
Assay in all cases: flow cytometry on transfected HEK293 cells, background control
[1] = biological target: hICOS on HEK293 cells (human) (UniProt Q9Y6W8)
[2] = biological target: hPDL2 on HEK293 cells (human) (UniProt Q9BQ51)
[3] = biological target: hPDL1 on HEK293 cells (human) (UniProt Q9NZQ7)
[4] = biological target: hCD28 on HEK293 cells (human) (UniProt P10747)
[5] = biological target: hBTLA on HEK293 cells (human) (UniProt Q7Z6A9)
[6] = biological target: human CTLA-4 expressed on cells (human) (UniProt P16410)
Sequence of human CTLA-4 expressed on cells (human) (P16410 36-223): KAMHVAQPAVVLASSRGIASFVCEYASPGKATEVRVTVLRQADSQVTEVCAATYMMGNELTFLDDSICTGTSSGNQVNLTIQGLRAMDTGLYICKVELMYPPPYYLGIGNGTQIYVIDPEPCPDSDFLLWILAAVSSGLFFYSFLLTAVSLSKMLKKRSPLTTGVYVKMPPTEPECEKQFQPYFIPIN

[7] = biological target: hPD1 on HEK293 cells (human) (UniProt Q15116)
Sequence of hPD1 on HEK293 cells (human) (Q15116 25-288): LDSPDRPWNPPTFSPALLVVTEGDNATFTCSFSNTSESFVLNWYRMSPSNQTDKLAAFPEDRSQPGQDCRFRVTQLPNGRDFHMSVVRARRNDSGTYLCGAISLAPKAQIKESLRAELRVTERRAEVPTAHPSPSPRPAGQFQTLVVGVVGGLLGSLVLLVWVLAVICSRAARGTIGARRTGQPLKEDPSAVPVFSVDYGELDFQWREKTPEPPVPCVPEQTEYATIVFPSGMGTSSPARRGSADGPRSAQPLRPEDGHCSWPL

Sequence of hICOS on HEK293 cells (human) (Q9Y6W8 21-199): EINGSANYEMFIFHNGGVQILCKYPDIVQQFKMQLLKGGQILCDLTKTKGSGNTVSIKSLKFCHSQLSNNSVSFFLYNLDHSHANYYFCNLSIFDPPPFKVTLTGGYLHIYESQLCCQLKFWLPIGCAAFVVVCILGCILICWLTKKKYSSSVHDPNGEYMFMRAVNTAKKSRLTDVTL
Sequence of hPDL2 on HEK293 cells (human) (Q9BQ51 20-273): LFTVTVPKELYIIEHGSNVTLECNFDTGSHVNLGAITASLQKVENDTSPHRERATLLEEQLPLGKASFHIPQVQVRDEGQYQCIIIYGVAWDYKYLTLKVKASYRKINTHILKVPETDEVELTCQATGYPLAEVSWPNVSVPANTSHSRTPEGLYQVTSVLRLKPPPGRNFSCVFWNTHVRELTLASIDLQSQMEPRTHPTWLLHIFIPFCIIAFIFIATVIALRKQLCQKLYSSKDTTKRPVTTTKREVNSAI
Sequence of hPDL1 on HEK293 cells (human) (Q9NZQ7 19-290): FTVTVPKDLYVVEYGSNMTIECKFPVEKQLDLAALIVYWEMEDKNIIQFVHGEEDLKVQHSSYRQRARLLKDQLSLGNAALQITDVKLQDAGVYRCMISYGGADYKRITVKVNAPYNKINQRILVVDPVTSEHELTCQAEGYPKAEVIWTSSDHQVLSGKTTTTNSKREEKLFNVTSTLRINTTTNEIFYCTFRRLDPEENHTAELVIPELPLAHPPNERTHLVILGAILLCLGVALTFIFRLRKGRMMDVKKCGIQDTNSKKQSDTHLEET

## Secondary Antibody only (anti-human labeled secondary antibody)
[1]
  MFI: 67 MFI
[2]
  MFI: 71 MFI
[3]
  MFI: 68 MFI
[4]
  MFI: 69 MFI
[5]
  MFI: 82 MFI
[6]
  MFI: 78 MFI
[7]
  MFI: 74 MFI
